# Results published in US20220347267A1, “METHODS TO IMPROVE PATIENT RESPONSE TO IMMUNE CHECKPOINT INHIBITORS AND FUNCTIONAL TESTS TO PREDICT RESPONSE” (Biomarker Strategies, LLC, priority 2019, published 2022).
# Assays:
# Type in all cases: cell-based, human
# H460 cells = assay: PD-L1 western blot after modulators (EM and MTAs); details: NSCLC H460, 30 minutes, 3 hours, 24 hours
# Description: (§1) Cell lines were acquired from ATCC, Sigma, or DSMZ. Human non-small cell lung carcinoma (NSCLC) cell lines H292 (ATCC no. CRL-1848.), H1299 (ATCC no. CRL-5803), H520 (ATCC no. CRL-5811), CALU6 (ATCC no. HTB-56), H1975 (ATCC no. CRL-5908), H460 (ATCC no. HTB-177), H2126 (ATCC no. CCL-256), H1650 (ATCC no. CRL-5883), and H2087 (ATCC no. CRL-5922) were used for this experiment along with head and neck squamous cell carcinoma (HNSCC) cell lines BHY (DSMZ ACC 404), CAL27 (ATCC no. CRL-2095), KYSE410 (Sigma), and A253 (ATCC no. HTB-41), melanoma cell lines A375 (ATCC no. CRL-1619), COL0853 (Sigma), and MM127 (Sigma) pancreatic cancer cell lines BXPC3 (ATCC no. CRL-1687), colorectal cancer cell lines […], HCT116 (ATCC no. CCL-247EMT), and breast cancer cell lines BT549 (ATCC no. HTB-122), BT20 (ATCC no. HTB-19), and T47D (ATCC no. HTB-133). Cells were maintained in manufacturer-recommended conditions at 37° C. inside humidified 5% CO2 incubators. Sub-cultivation and harvesting for all cell lines were performed using Accutase (GIBCO Life Technologies; cat. no. A1110501) at 37° C. for 10 minutes. Cell viability was measured using trypan blue exclusion staining in conjunction with the Countess II Automated Cell Counter (Thermo Fischer Scientific; cat. no. AMQAX1000). Measurements were made in duplicate and the average number of viable cells was recorded prior to experiments.
# (§2) T7039), and IL-10 (50 ng/ml; Sigma Aldrich cat. no. SRP3071) were administered to cell lines for various times including 30 minutes, 3 hour, and 24 hour time intervals prior to cell lysis and protein extraction.
# (§3) To determine the effects of the aforementioned molecules on the modulation of PD-L1, we selected various NSCLC, HNSCC, breast cancer, melanoma, colorectal cancer, and pancreatic cancer cell lines as examples. Other diseases or cell lines could be used readily as could more complex samples such as cells isolated from xenografts and clinical samples. Cells were plated, for three different time points (30 minutes, 3 hours, and 24 hours), inside 6-well petri dishes with 2 mL of appropriate medium. Plates were incubated for 24 hours in 5% CO2 incubators at 37° C. After 24 hours, each 6-well plate was washed with PBS (Gibco Life Technologies, cat. no. 10010023) followed by fresh media being added along with each cell line's vehicle control or appropriate modulator for each specific time point, and were placed in CO2 incubators until their modulation time point was reached. Other conditions can be readily used, such as processing on automated systems such as SnapPath. At the end of each time point, while keeping plates on ice, cell lysis was conducted by aspirating culture medium from each plate, washing of each plate three times with 5 ml of cold PBS (Gibco Life Technologies, cat. no. 10010023) and culminated with the addition of cold 1× lysis buffer containing (Cell Signaling, cat. no. 9803 S) protease inhibitor cocktail (Cell Signaling, cat. no. 5871S), phosphatase inhibitor cocktail (Cell Signaling, cat. no. 5870S), and PMSF (Fisher Scientific, cat. no. ICN19538101). Plates were then placed on ice for ten minutes, swirling each plate intermittently. Aliquots of protein lysates were prepared and then stored at −80° C. until protein quantification and Western blot analysis was to be conducted. The protein concentration of each lysate was analyzed by using the Pierce 660 Protein Assay Reagent (Thermo Fisher Scientific, cat. no. 22660) and testing of each sample was conducted in duplicate. Two μg of protein was then loaded per lane into 10% Midi-PROTEAN TGX Precast Gels (Bio Rad, cat. no. 5671034) along with Kaleidoscope Prestained Protein Standard (BioRad, cat. no. 1610375) which ran at 220V for 45 minutes. Proteins were transferred to mini-PVDF membranes (BioRad, cat. no. 1704156) in 3 minutes using the Trans-Blot Turbo Transfer System (BioRad, cat. no. 1704150EDU).
# H292 cells = assay: PD-L1 western blot after modulators (EM and MTAs); details: NSCLC H292, 30 minutes, 3 hours, 24 hours
# Description: as §1, §2, §3
# H1650 cells = assay: PD-L1 western blot after modulators (EM and MTAs); details: NSCLC H1650, 30 minutes, 3 hours, 24 hours
# Description: as §1, §2, §3
# BT549 cells = assay: PD-L1 western blot after modulators (EM and MTAs); details: Breast BT549, 30 minutes, 3 hours, 24 hours
# Description: as §1, §2, §3
# [1] = tested on: various NSCLC, HNSCC, breast cancer, melanoma, colorectal cancer, and pancreatic cancer cell lines; assay: PD-L1 western blot after modulators, summary over all samples; details: depending on the sample, summary of Table 3
# Description: as §1, §2, §3
molecule,measurement,setting,value
"IFNγ: human IFNγ, modulator (10 ng/ml; Sigma Aldrich) (protein, UniProt P01579 24-161, looked up) Interferon gamma: QDPYVKEAENLKKYFNAGHSDVADNGTLFLGILKNWKEESDRKIMQSQIVSFYFKLFKNFKDDQSIQKSVETIKEDMNVKFFNSNKKKRDDFEKLTNYSVTDLNVQRKAIHELIQVMAELSPAAKTGKRKRSQMLFRG",PD-L1 Response,H460 cells,Up
same,PD-L1 Response,H292 cells,Up
same,PD-L1 Response,H1650 cells,Up
same,PD-L1 Response,BT549 cells,Up
same,regulation of PD-L1 across samples,[1],only led to upregulation
